Holding throughout (test): purified protein
Substrate in series [1]: CC(C)=CCNc1ncnc2c1ncn2[C@@H]1O[C@H](COP(=O)(O)O)[C@@H](O)[C@H]1O
Particulars: 37 °C, HEPES, NaCl, MgCl2, 2-mercaptoethanol.

Substrate in series [2]: CN(C)c1ncnc2c1ncn2[C@@H]1O[C@H](COP(=O)(O)O)[C@@H](O)[C@H]1O
The following applies: 37 °C, HEPES, NaCl, MgCl2, 2-mercaptoethanol.

Substrate in series [3]: CNc1ncnc2c1ncn2[C@@H]1O[C@H](COP(=O)(O)O)[C@@H](O)[C@H]1O
The following applies: 37 °C, HEPES, NaCl, MgCl2, 2-mercaptoethanol.

Substrate in series [4]: CC(C)=CCNc1ncnc2c1ncn2[C@@H]1O[C@H](CO)[C@@H](O)[C@H]1O
The following applies: ATP 1 mM, 37 °C, HEPES, NaCl, MgCl2, CaCl2.

Substrate in series [5]: CN(C)c1ncnc2c1ncn2[C@@H]1O[C@H](CO)[C@@H](O)[C@H]1O
The following applies: ATP 1 mM, 37 °C, HEPES, NaCl, MgCl2, CaCl2.

Substrate in series [6]: CNc1ncnc2c1ncn2[C@@H]1O[C@H](CO)[C@@H](O)[C@H]1O
The following applies: ATP 1 mM, 37 °C, HEPES, NaCl, MgCl2, CaCl2.

B1: ADAL (hADAL, adenosine deaminase-like) (Homo sapiens) (protein)
chain: MIEAEEQQPCKTDFYSELPKVELHAHLNGSISSHTMKKLIAQKPDLKIHDQMTVIDKGKKRTLEECFQMFQTIHQLTSSPEDILMVTKDVIKEFADDGVKYLELRSTPRRENATGMTKKTYVESILEGIKQSKQENLDIDVRYLIAVDRRGGPLVAKETVKLAEEFFLSTEGTVLGLDLSGDPTVGQAKDFLEPLLEAKKAGLKLALHLSEIPNQKKETQILLDLLPDRIGHGTFLNSGEGGSLDLVDFVRQHRIPLELCLTSNVKSQTVPSYDQHHFGFWYSIAHPSVICTDDKGVFATHLSQEYQLAAETFNLTQSQVWDLSYESINYIFASDSTRSELRKKWNHLKPRVLHI
Turning to B1, the Km is on record as 35 ± 1.4 µM in “purified protein [1]”, 65 ± 1.7 µM in “purified protein [2]” and 47 ± 1.1 µM in the series “purified protein [3]”. In addition, the kcat in “purified protein [1]” came out at 1.9 ± 0.066 s⁻¹; in the series “purified protein [2]” it was 2.6 ± 0.036 s⁻¹; in the series “purified protein [3]”, 2.4 ± 0.068 s⁻¹.

B2: ADK (human adenosine kinase) (Homo sapiens) (protein)
chain: MTSVRENILFGMGNPLLDISAVVDKDFLDKYSLKPNDQILAEDKHKELFDELVKKFKVEYHAGGSTQNSIKVAQWMIQQPHKAATFFGCIGIDKFGEILKRKAAEAHVDAHYYEQNEQPTGTCAACITGDNRSLIANLAAANCYKKEKHLDLEKNWMLVEKARVCYIAGFFLTVSPESVLKVAHHASENNRIFTLNLSAPFISQFYKESLMKVMPYVDILFGNETEAATFAREQGFETKDIKEIAKKTQALPKMNSKRQRIVIFTQGRDDTIMATESEVTAFAVLDQDQKEIIDTNGAGDAFVGGFLSQLVSDKPLTECIRAGHYAASIIIRRTGCTFPEKPDFH
Regarding B2, the results for the Km in the series “purified protein [4]”, in “purified protein [5]” and in “purified protein [6]” were 10 ± 1.0 µM, 6.1 ± 0.31 µM and 15 ± 1.8 µM, respectively. In addition, the results for the kcat in the series “purified protein [4]”, in the series “purified protein [5]” and in the series “purified protein [6]” were 0.18 ± 0.018 s⁻¹, 0.27 ± 0.0024 s⁻¹ and 0.28 ± 0.0063 s⁻¹, respectively.

(Values after publication doi:10.1101/2024.05.23.595515v1.)
